Laboratory results published in patent US20200024330A1.

Tests used:
Experiment in all cases: cell-based or functional assay
[1] = target: HIV-1 Env of isolate MGRM-A-012 (clade A), on pseudovirus (HIV-1)
[2] = target: HIV-1 Env of isolate MGRM-A-011 (clade A), on pseudovirus (HIV-1)
[3] = target: HIV-1 Env of isolate 98CN006 (HIV-1)
[4] = target: HIV-1 Env of isolate MGRM-D-016 (HIV-1)
[5] = target: HIV-1 Env of isolate PVO.4 (HIV-1)
[6] = target: HIV-1 Env of isolate MGRM-D-019 (HIV-1)
[7] = target: HIV-1 Env of isolate MGRM-F1-017 (subtype F), on pseudovirus (HIV-1)
[8] = target: HIV-1 Env of isolate MGRM-A-013 (clade A), on pseudovirus (HIV-1)
[9] = target: HIV-1 Env of isolate MGRM-Chronic-B-008 (HIV-1)
[10] = target: HIV-1 Env of isolate APV-13 (pseudovirus) (HIV-1 isolate APV-13, subtype B)
[11] = target: HIV-1 Env of isolate MGRM-G-004 (subtype G) (HIV-1)
[12] = target: HIV-1 Env of isolate MGRM-AE-003 (HIV-1)
[13] = target: HIV-1 Env of isolate CMU02 (HIV-1)
[14] = target: HIV-1 Env of isolate MGRM-C-012 (pseudovirus) (HIV-1 isolate MGRM-C-012, subtype C)
[15] = target: HIV-1 JR-CSF Env N188A (HIV-1 (isolate JR-CSF)) (UniProt P20871)
[16] = target: HIV-1 93TH305 Env (pseudovirus) (HIV-1)
[17] = target: HIV-1 Env of isolate MG RM-D-029 (subtype D) (HIV-1)
[18] = target: HIV-1 Env of isolate MG RM-AG-002 (HIV-1)
[19] = target: HIV-1 Env of isolate MGRM-C-015 (pseudovirus) (HIV-1 isolate MGRM-C-015, subtype C)
[20] = target: HIV-1 Env of isolate MGRM-C-017 (pseudovirus) (HIV-1 isolate MGRM-C-017, subtype C)
[21] = target: HIV-1 Env of isolate MG RM-D-014 (subtype D) (HIV-1)
[22] = target: HIV-1 Env of isolate MG RM-AG-011 (HIV-1)
[23] = target: HIV-1 Env of isolate MGRM-C-024 (pseudovirus) (HIV-1 isolate MGRM-C-024, subtype C)
[24] = target: HIV-1 JR-CSF Env N160K (HIV-1 (isolate JR-CSF)) (UniProt P20871)
[25] = target: HIV-1 JR-CSF Env V182A (HIV-1 (isolate JR-CSF)) (UniProt P20871)
[26] = target: HIV-1 Env of isolate MG RM-D-016 (subtype D) (HIV-1)
[27] = target: HIV-1 93IN905 Env (pseudovirus) (HIV-1)
[28] = target: HIV-1 PVO.4 Env (pseudovirus) (HIV-1)
[29] = target: HIV-1 JR-CSF Env D167A (HIV-1 (isolate JR-CSF)) (UniProt P20871)
[30] = target: HIV-1 CAAN.A2 Env (pseudovirus) (HIV-1)
[31] = target: HIV-1 MGRM-Chronic-B-011 Env (pseudovirus) (HIV-1)
[32] = target: HIV-1 92UG005 envelope glycoprotein (Env) on pseudovirus (HIV-1)
[33] = target: HIV-1 92RW009 envelope glycoprotein (Env) (HIV-1)
[34] = target: HIV-1 Env of isolate MGRM-G-024 (clade G pseudovirus) (HIV-1)
[35] = target: HIV-1 94KE105 envelope glycoprotein (Env) (HIV-1)
[36] = target: HIV-1 Env of isolate 92UG024 (clade D) (HIV-1)
[37] = target: HIV-1 MGRM-C-010 Env (HIV-1)
[38] = target: HIV-1 92TH021 envelope protein (Env) on pseudovirus (HIV-1)
[39] = target: HIV-1 MGRM-F1-012 Env (pseudovirus) (HIV-1)
[40] = target: HIV-1 Env of pseudovirus 6535.3 (Acute), clade B (HIV-1)
[41] = target: HIV-1 MGRM-C-025 Env (HIV-1)
[42] = target: HIV-1 MGRM-C-015 Env (HIV-1)

Chain of 5329_C19 (PGT-136) (antibody) (VH): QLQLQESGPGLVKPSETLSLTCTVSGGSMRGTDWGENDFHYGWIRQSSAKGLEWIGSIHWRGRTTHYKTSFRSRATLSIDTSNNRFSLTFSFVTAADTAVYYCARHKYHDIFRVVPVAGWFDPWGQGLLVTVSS
Chain of 5329_C19 (PGT-136) (antibody) (VL): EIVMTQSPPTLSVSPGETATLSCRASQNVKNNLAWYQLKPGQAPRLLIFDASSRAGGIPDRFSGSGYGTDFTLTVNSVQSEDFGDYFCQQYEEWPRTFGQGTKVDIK
Chain of 5345_I01 (PGT-137) (antibody) (VH): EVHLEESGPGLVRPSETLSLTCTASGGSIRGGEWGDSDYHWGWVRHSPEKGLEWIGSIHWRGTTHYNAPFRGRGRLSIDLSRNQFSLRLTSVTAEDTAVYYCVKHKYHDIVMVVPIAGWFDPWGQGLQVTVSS
Chain of 5345_I01 (PGT-137) (antibody) (VL): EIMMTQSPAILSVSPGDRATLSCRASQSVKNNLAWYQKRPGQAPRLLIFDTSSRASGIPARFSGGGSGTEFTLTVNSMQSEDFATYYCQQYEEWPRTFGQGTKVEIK
Chain of PGT-142 (4995_E20) (antibody) (VH): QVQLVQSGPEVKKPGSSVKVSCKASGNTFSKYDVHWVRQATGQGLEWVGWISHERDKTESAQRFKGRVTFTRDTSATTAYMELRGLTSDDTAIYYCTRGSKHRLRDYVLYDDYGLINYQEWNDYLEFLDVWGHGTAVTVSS
Chain of PGT-142 (4995_E20) (antibody) (VL): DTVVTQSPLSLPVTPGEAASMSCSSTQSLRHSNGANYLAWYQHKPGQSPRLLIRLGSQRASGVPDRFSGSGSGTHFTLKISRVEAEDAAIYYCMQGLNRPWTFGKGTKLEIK
Chain of PGT-144 (4970_K22) (antibody) (VH): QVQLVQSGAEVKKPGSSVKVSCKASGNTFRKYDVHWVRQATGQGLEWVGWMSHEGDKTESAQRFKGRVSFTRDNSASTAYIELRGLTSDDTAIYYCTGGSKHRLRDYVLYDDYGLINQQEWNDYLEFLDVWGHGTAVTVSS
Chain of PGT-144 (4970_K22) (antibody) (VL): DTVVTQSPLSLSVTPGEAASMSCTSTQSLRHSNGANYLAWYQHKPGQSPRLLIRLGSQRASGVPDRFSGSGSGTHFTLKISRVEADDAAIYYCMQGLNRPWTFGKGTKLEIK
Chain of PGT-143 (4980_N08) (antibody) (VH): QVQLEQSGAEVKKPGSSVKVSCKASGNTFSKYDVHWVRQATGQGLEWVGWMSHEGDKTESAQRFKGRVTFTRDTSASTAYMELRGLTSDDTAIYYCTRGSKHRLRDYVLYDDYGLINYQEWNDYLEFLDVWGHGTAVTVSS
Chain of PGT-143 (4980_N08) (antibody) (VL): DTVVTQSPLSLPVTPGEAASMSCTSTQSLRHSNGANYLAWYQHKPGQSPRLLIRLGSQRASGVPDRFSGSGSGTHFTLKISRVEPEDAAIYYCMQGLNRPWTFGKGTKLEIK
Chain of PGT-141 (4964_G22; 4993_K13) (antibody) (VH): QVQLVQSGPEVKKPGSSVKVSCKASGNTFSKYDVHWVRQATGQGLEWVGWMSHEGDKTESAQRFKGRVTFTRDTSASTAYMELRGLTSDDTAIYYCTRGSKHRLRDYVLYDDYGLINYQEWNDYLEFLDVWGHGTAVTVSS

Substance | neutralization IC50 [11] [µg/mL] | IC50 (µg/mL) neutralization [14] [µg/mL] | IC50, pseudovirus neutralization [16] [µg/mL] | IC50 (µg/mL), pseudovirus neutralization [17] [µg/mL] | neutralization IC50 [18] [µg/mL] | IC50 (µg/mL) neutralization [19] [µg/mL] | IC50 (µg/mL) neutralization [20] [µg/mL] | IC50 (µg/mL), pseudovirus neutralization [21] [µg/mL] | neutralization IC50 [22] [µg/mL] | IC50 (µg/mL) neutralization [23] [µg/mL] | IC50 (µg/mL), pseudovirus neutralization [26] [µg/mL] | IC50, pseudovirus neutralization [27] [µg/mL] | IC50, pseudovirus neutralization [28] [µg/mL] | IC50, pseudovirus neutralization [30] [µg/mL] | IC50, pseudovirus neutralization [31] [µg/mL] | other results
5329_C19 (PGT-136) (antibody) | – | – | – | – | – | – | – | – | – | – | – | – | – | – | – | IC50, single-round pseudovirus neutralization [1]: > 50 µg/mL; IC50, single-round pseudovirus neutralization [2]: > 50 µg/mL; IC50 [3]: 0.406 µg/mL; IC50 [4]: > 50 µg/mL; IC50 [5]: > 50 µg/mL; IC50 [6]: > 50 µg/mL; IC50, pseudovirus neutralization [7]: > 50 µg/mL; IC50, single-round pseudovirus neutralization [8]: > 50 µg/mL; IC50 [9]: > 50 µg/mL; IC50 (µg/mL) neutralization [10]: > 50 µg/mL
VRC01 (antibody) | > 50 | – | – | – | – | – | – | – | – | – | – | – | – | – | – | IC50, pseudovirus neutralization [4]: 0.452 µg/mL; neutralization IC50 [5]: 0.218 µg/mL; IC50, pseudovirus neutralization [6]: 0.119 µg/mL; IC50 [9]: 0.155 µg/mL
PGT-122 (antibody) | – | – | – | – | – | – | – | – | – | – | – | – | – | – | – | IC50 (µg/mL), pseudovirus neutralization [12]: > 50 µg/mL; IC50 (µg/mL), pseudovirus neutralization [13]: > 50 µg/mL
5145_B14 (PGT-127) (antibody) | – | 1.07 | 0.017 | > 50 | > 50 | > 50 | 3.4 | 0.393 | > 50 | > 50 | > 50 | 0.024 | 0.164 | 0.371 | 0.297 | Fold IC50 increase relative to wild-type [15]: 0.8 fold; Fold IC50 increase relative to wild-type [24]: 0.8 fold; Fold IC50 increase relative to wild-type [25]: 1.6 fold; Fold IC50 increase relative to wild-type [29]: 1.6 fold
4838_L06 (PGT-121) (antibody) | – | 0.123 | 0.007 | > 50 | > 50 | 25.1 | 0.009 | 0.009 | > 50 | 0.052 | > 50 | 0.005 | 0.137 | 0.011 | > 50 | neutralization IC80 [27]: 0.0302 µg/mL; neutralization IC90 [27]: 0.0645 µg/mL; IC50 (ug/ml), neutralizing activity [32]: > 10 µg/mL
PGT-143 (4980_N08) (antibody) | > 50 | – | – | – | – | – | – | – | – | – | – | – | – | – | – | –
PGT-142 (4995_E20) (antibody) | > 50 | – | – | – | – | – | – | – | – | – | – | – | – | – | – | –
PGT-121 (antibody) | – | – | – | – | – | – | – | – | – | – | – | – | – | – | – | IC50 (µg/mL), pseudovirus neutralization [12]: > 50 µg/mL; IC50 (µg/mL), pseudovirus neutralization [13]: > 50 µg/mL
5345_I01 (PGT-137) (antibody) | – | – | – | – | – | – | – | – | – | – | – | – | – | – | – | IC50, single-round pseudovirus neutralization [1]: > 50 µg/mL; IC50, single-round pseudovirus neutralization [2]: > 50 µg/mL; IC50 [3]: 1.22 µg/mL; IC50 [4]: > 50 µg/mL; IC50 [6]: > 50 µg/mL; IC50, pseudovirus neutralization [7]: > 50 µg/mL; IC50, single-round pseudovirus neutralization [8]: 49.2 µg/mL; IC50 [9]: > 50 µg/mL; IC50 (µg/mL) neutralization [10]: > 50 µg/mL
1496_C09 (PG9) (TCN-109) (antibody) | – | – | – | – | – | – | – | – | – | – | – | – | – | – | – | IC50 (µg/ml), pseudovirus neutralization [33]: 0.03 µg/mL; IC50 (µg/mL), pseudovirus neutralization [12]: 0.044 µg/mL; IC50 (µg/ml), pseudovirus neutralization [34]: 0.07 µg/mL; IC50 (µg/ml), pseudovirus neutralization [35]: 29.6 µg/mL; IC50 (µg/ml), pseudovirus neutralization [36]: 1.91 µg/mL; IC50 [37]: 12.4 µg/mL; neutralization IC50 [38]: 0.111 µg/mL; IC50 (µg/mL), pseudovirus neutralization [4]: 0.098 µg/mL; IC50 (µg/ml), pseudovirus neutralization [39]: 0.01 µg/mL; IC50 (µg/mL), pseudovirus neutralization [6]: 0.038 µg/mL; IC50 (µg/ml), pseudovirus neutralization [40]: 0.22 µg/mL; IC50 [41]: 0.17 µg/mL; IC50 [42]: 0.5 µg/mL; IC50 (µg/ml), pseudovirus neutralization [13]: 7.69 µg/mL
5123_A06 (PGT-125) (antibody) | – | > 50 | 0.008 | > 50 | > 50 | > 50 | 2.36 | > 50 | > 50 | > 50 | 0.12 | 0.009 | 0.042 | 5.47 | 3.23 | Fold IC50 increase relative to wild-type [15]: 0.7 fold; Fold IC50 increase relative to wild-type [24]: 0.5 fold; Fold IC50 increase relative to wild-type [25]: 1.3 fold; Fold IC50 increase relative to wild-type [29]: 1.7 fold; IC50 (ug/ml), neutralizing activity [32]: > 10 µg/mL; neutralization IC50 [32]: > 10 µg/mL; neutralization IC80 [32]: > 10 µg/mL; neutralization IC90 [32]: > 10 µg/mL; neutralization IC95 [32]: > 10 µg/mL
PGT-144 (4970_K22) (antibody) | > 50 | – | – | – | – | – | – | – | – | – | – | – | – | – | – | –
5141_B17 (PGT-126) (antibody) | – | 0.111 | 0.013 | > 50 | > 50 | 3.14 | 0.17 | 0.03 | 24.5 | > 50 | > 50 | 0.015 | 0.017 | 0.273 | 0.108 | Fold IC50 increase relative to wild-type [15]: 0.8 fold; Fold IC50 increase relative to wild-type [24]: 0.5 fold; Fold IC50 increase relative to wild-type [25]: 1.4 fold; IC50 [27]: 0.0194 µg/mL; IC80 [27]: 0.0676 µg/mL; IC90 [27]: 0.14 µg/mL; IC95 [27]: 0.275 µg/mL; Fold IC50 increase relative to wild-type [29]: 1.6 fold; IC50 (ug/ml), neutralizing activity [32]: 0.0181 µg/mL
PGV04 (antibody) | > 50 | – | – | – | – | – | – | – | – | – | – | – | – | – | – | IC50 (µg/mL), pseudovirus neutralization [12]: 6.4 µg/mL; IC50, pseudovirus neutralization [3]: 1.32 µg/mL; IC50 (µg/mL), pseudovirus neutralization [4]: 0.201 µg/mL; IC50 (µg/mL), pseudovirus neutralization [6]: 0.35 µg/mL; IC50 (µg/mL), pseudovirus neutralization [13]: 1.24 µg/mL
4877_D15 (PGT-122) (antibody) | – | 2 | 0.013 | > 50 | > 50 | > 50 | 0.015 | 0.012 | > 50 | 0.102 | > 50 | 0.013 | 0.689 | 0.011 | > 50 | IC50 (ug/ml), neutralizing activity [32]: > 10 µg/mL
PGT-141 (4964_G22; 4993_K13) (antibody) | > 50 | – | – | – | – | – | – | – | – | – | – | – | – | – | – | –
4858_P08 (PGT-123) (antibody) | – | 0.605 | 0.008 | > 50 | > 50 | 13.1 | 0.01 | 0.009 | > 50 | 0.195 | > 50 | 0.004 | 0.105 | 0.015 | > 50 | Fold IC50 increase relative to wild-type [15]: 1.1 fold; Fold IC50 increase relative to wild-type [24]: 1 fold; Fold IC50 increase relative to wild-type [25]: 2.8 fold; Fold IC50 increase relative to wild-type [29]: 1.2 fold; IC50 (ug/ml), neutralizing activity [32]: 2.49 µg/mL; IC50, pseudovirus neutralization [32]: 2.49 µg/mL; IC80, pseudovirus neutralization [32]: > 10 µg/mL; IC90 (pseudovirus neutralization) [32]: > 10 µg/mL; IC95, pseudovirus neutralization [32]: > 10 µg/mL
